Assay results taken from IntAct's records for PubMed 19523899.

B1: Tyrosine-protein phosphatase non-receptor type 23 (Mus musculus), Q6PB44 (parent)
chain: MEAVPRMPMIWLDLKEAGDFHFQSAVKKFVLKNYGENPEAYNEELKKLELLRQNAIRVARDFEGCSVLRKYLGQLHYLQSRVPMGSGQEAAVAVTWTEIFSGKSVSHEDIKYEQACILYNLGALHSMLGAMDKRVSEEGMKVSCTHFQCAAGAFAYLREHFPQAFSVDMSRQILTLNVNLMLGQAQECLLEKSMLDNRKSFLVARISAQVVDYYKEACRALENPDTASLLGRIQKDWKKLVQMKIYYFAAVAHLHMGKQAEEQQKFGERVAYFQSALDKLNEAIKLAKGQPDTVQDALRFAMDVIGGKYNSAKKDNDFIYHEAVPALDTLQPVKGAPLVKPLPVNPTDPAVTGPDIFAKLVPMAAHEASSLYSEEKAKLLREMLAKIEDKNEVLDQFMDSMQLDPETVDNLDAYNHIPPQLMEKCAALSVRPDTVKNLVQSMQVLSGVFTDVEASLKDIRDLLEEDELQEQKLQETLGQAGAGPGPSVAKAELAEVRREWAKYMEVHEKASFTNSELHRAMNLHVGNLRLLSGPLDQVRAALPTPALTPEDKAVLQNLKRILAKVQEMRDQRVSLEQQLRELIQKDDITASLVTTDHSEMKKLFEEQLKKYDQLKVYLEQNLAAQDNVLRALTEANVQYAAVRRVLSELDQKWNSTLQTLVASYEAYEDLMKKSQEGKDFYADLESKVATLLERAQSICRAQEAARQQLLDRELKKKAPPPRPTAPKPLLSRREEGEAVEAGDTPEELRSLPPDMMVGPRLPDPFLGTTAPLHFSPGPFPSSTGPATHYLSGPLPPGTYSGPTQLMQPRAAVPMAPATVLYPAPAYTSELGLVPRSSPQHGIVSSPYAGVGPPQPVVGLPSAPPPQLSGPELAMTVRPATTTVDSVQAPISSHTAPRPNPTPALPQPCFPVPQPVPQSVPQPQPLPVPYTYSIGTKQPLPAPYTYSIGTKQHLTGPLPQHQFPPGIPTGFPVPRTGPQAQAQPQPQPQPQPQPQPQPQPQPQPQSQSQPQPQPQPQPQRPAFGPQPTQQPLPFQHPHLFPSQAPGILPPPPPTPYHFTPQPGVLGQPPPTLHTQLYPGPSQDPLPPHSGALPFPSPGPPHPHPTLAYGPAPSPRPLGPQATPVSIRGPPPASQPTPSPHLVPSPAPSPGPGPVPSRPPTAEPPPCLRRGAAAADLLSSSPESQHGGTQPPGGGQPLLQPTKVDAAEGRRPQALRLIEQDPYEHPERLQQLQQELEAFRGQLGDAGALDAIWRELQEAQEHDARGRSIAIARCYSLKNRHQDVMPYDSNRVVLRSGKDDYINASCVEGLSPYCPPLVATQAPLPGTAADFWLMVHEQKVSVIVMLVSEAEMEKQKVARYFPTERGQPMVHGALSVALSSIRTTETHVERVLSLQFRDQSLKRSLVHLHFPTWPELGLPDSPGNLLRFIQEVHAHYLHQRPLHTPIVVHCSSGVGRTGAFALLYAAVQEVEAGNGIPELPQLVRRMRQQRKHMLQEKLHLKFCHEALVRHVEQVLQRHGVPPPGKPVASVNISQKNHLPQDSQDLVLGGDVPISSIQATIAKLSIRPLGGLDSPAASLPGLVEPPGLPPASLPESTPVPSSSPPPLSSPLPEAPQPEEEPSVPEAPSLGPPSSSLELLASLTPEAFSLDSSLRGKQRMSKQNFLQAHNGQGLRAAQPTDDPLSLLDPLWTLNKT
partner: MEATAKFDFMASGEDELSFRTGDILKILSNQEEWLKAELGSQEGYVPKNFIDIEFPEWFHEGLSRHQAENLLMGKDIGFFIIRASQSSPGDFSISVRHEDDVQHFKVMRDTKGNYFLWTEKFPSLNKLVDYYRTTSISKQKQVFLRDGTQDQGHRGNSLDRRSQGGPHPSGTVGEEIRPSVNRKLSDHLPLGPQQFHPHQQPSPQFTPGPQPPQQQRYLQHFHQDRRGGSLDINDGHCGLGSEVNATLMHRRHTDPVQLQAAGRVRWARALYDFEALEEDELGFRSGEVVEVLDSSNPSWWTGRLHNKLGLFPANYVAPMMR

Variants of: B1
Conditions: with grap2_mouse Grap2, O89100

Variant	effect of a mutation on the interaction
R722A	decreasing interaction
P720A;R722A	disrupting interaction
K727H	decreasing interaction strength
K727A	decreasing interaction strength
K727A;P728A	disrupting interaction strength
